These results are taken from publication PMC3507856, “Two glutamic acid residues in the DNA-binding domain are engaged in the release of STAT1 dimers from DNA” (BMC Cell Biology, 2012).

Series [1] concerns the molecule itself. Briefly: native gel or EMSA; whole cell lysates of HeLa cells (IFNγ 45 min, then staurosporine for the durations indicated) incubated in vitro with 32P-labelled M67 DNA (single high-affinity GAS site); STAT1 dimers seen as DNA-bound complexes on a 4% acrylamide gel at 4°C; homo- and heterodimers told apart by mobility.
Series [2] deals with the molecule itself. The experiment in a line: native gel or EMSA; extracts of IFNγ-stimulated U3A cells incubated in vitro with 32P-labelled DNA containing a tandem GAS site; unchallenged or challenged for 30 min with a 750-fold molar excess of a single unlabelled GAS site (M67); dimeric and tetrameric STAT1 seen as DNA-bound complexes.
For series [3], the target named is T1, endogenous (native) STAT1 of HeLa cells (human (endogenous in HeLa)), P42224.
T1 chain: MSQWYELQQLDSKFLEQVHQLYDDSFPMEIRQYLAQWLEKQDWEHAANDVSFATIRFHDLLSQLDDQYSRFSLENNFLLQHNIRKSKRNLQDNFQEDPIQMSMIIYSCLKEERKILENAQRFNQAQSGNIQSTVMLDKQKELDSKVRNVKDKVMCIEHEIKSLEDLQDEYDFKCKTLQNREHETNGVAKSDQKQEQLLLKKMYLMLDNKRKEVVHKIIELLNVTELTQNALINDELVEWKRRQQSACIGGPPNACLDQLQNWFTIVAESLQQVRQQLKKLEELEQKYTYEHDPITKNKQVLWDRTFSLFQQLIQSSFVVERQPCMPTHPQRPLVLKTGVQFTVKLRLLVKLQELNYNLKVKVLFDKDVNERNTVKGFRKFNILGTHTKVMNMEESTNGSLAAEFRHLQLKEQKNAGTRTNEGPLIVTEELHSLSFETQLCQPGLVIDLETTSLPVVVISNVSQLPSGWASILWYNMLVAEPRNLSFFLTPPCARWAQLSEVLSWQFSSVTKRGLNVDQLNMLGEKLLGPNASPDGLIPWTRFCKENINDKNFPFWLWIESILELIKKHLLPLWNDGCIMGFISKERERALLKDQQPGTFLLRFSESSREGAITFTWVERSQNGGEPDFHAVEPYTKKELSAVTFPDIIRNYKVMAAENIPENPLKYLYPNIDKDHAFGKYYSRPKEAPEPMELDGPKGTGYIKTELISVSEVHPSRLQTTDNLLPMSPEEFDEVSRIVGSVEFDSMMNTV
Briefly: native gel or EMSA; whole cell lysates of HeLa cells (IFNγ 45 min, then staurosporine for the durations indicated) incubated in vitro with 32P-labelled M67 DNA (single high-affinity GAS site); STAT1 dimers seen as DNA-bound complexes on a 4% acrylamide gel at 4°C; homo- and heterodimers told apart by mobility. The conditions noted are these: remark: other sources report otherwise. (In general: A gel shift assay detects complexes by their altered migration in electrophoresis.)

Positions count from the first letter of the chain named. Numbers in names are those of the source. Where “and” joins values, the source holds several entries; their conditions need not be identical. Equal values may be shown once.

For orientation: stoichiometry N means the number of molecules, sites or subunits per partner or assembly.

B1: STAT1-WT-GFP (wild-type human STAT1 fused to green fluorescent protein) (natural protein, UniProt P42224 1-746, looked up)
chain: MSQWYELQQLDSKFLEQVHQLYDDSFPMEIRQYLAQWLEKQDWEHAANDVSFATIRFHDLLSQLDDQYSRFSLENNFLLQHNIRKSKRNLQDNFQEDPIQMSMIIYSCLKEERKILENAQRFNQAQSGNIQSTVMLDKQKELDSKVRNVKDKVMCIEHEIKSLEDLQDEYDFKCKTLQNREHETNGVAKSDQKQEQLLLKKMYLMLDNKRKEVVHKIIELLNVTELTQNALINDELVEWKRRQQSACIGGPPNACLDQLQNWFTIVAESLQQVRQQLKKLEELEQKYTYEHDPITKNKQVLWDRTFSLFQQLIQSSFVVERQPCMPTHPQRPLVLKTGVQFTVKLRLLVKLQELNYNLKVKVLFDKDVNERNTVKGFRKFNILGTHTKVMNMEESTNGSLAAEFRHLQLKEQKNAGTRTNEGPLIVTEELHSLSFETQLCQPGLVIDLETTSLPVVVISNVSQLPSGWASILWYNMLVAEPRNLSFFLTPPCARWAQLSEVLSWQFSSVTKRGLNVDQLNMLGEKLLGPNASPDGLIPWTRFCKENINDKNFPFWLWIESILELIKKHLLPLWNDGCIMGFISKERERALLKDQQPGTFLLRFSESSREGAITFTWVERSQNGGEPDFHAVEPYTKKELSAVTFPDIIRNYKVMAAENIPENPLKYLYPNIDKDHAFGKYYSRPKEAPEPMELDGPKGTGYIKTELISVSEVHPSRLQTTDNLLPMSPEEFDEVSRIVGSVEFDSM
modifications: tyrosine-phosphorylated (phospho-Tyr701) after stimulation of cells with IFNγ
notes: also called STAT1-GFP; GFP-tagged wild-type STAT1; source: HeLa cells, transfected (pEGFP-N1-STAT1), IFNγ-stimulated, in whole cell lysate; not shown: GFP, C-terminal, kept
Consider B1, for which the “stoichiometry N” value in series [1] came out at 2.

B2: STAT1-E411A expressed in STAT1-negative U3A cells (natural protein, human, UniProt P42224 1-746, looked up)
chain: B1 chain with E411A
modifications: tyrosine-phosphorylated after stimulation of cells with IFNγ
notes: STAT1, human; glutamic acid 411 changed to alanine; also called E411A mutant; mutant STAT1; source: U3A cells, transfected, IFNγ-stimulated, in cell extract
For the molecule B2, in series [2], the “stoichiometry N” value was 2 and 4.

B3: wild-type STAT1 expressed in STAT1-negative U3A cells (natural protein, human, UniProt P42224 1-746, looked up)
chain: B1 chain
modifications: tyrosine-phosphorylated after stimulation of cells with IFNγ
notes: STAT1, human; also called STAT1-WT; source: U3A cells, transfected, IFNγ-stimulated, in cell extract
With B3, in series [2], the “stoichiometry N” value was 2 and 4.

B4: STAT1-E411A-GFP (natural protein, human, UniProt P42224 1-746, looked up)
chain: B1 chain with E411A
modifications: tyrosine-phosphorylated (phospho-Tyr701) after stimulation of cells with IFNγ
notes: STAT1, human; also called E411 mutant; source: HeLa cells, transfected (pEGFP-N1-STAT1 with point mutation), IFNγ-stimulated, in whole cell lysate; not shown: GFP, C-terminal, kept
Consider B4, for which, in series [1], the “stoichiometry N” value worked out at 2.

B5: endogenous (native) STAT1 of HeLa cells, P42224 1-750 (natural protein)
chain: T1 chain
modifications: here or on the partner: tyrosine-phosphorylated (phospho-Tyr701) after stimulation of cells with IFNγ; tyrosine-phosphorylated (phospho-Tyr701) after stimulation of cells with IFNγ
In series [3], B5 displayed a stoichiometry N of 2.
